Measured values taken from patent publication US6416987B1, “Mutants of thymidylate synthase and uses thereof” (Sloan Kettering Institute for Cancer Research, priority 1997, dated 2002).
Substitutions are numbered along the chain they refer to. Names may count otherwise. “Also recorded” adds a separate entry of the source.

B1: G52S: human TS mutant Gly52→Ser (protein)
chain: MPVAGSELPRRPLPPAAQERDAEPRPPHGELQYLGQIQHILRCGVRKDDRTSTGTLSVFGMQARYSLRDEFPLLTTKRVFWKGVLEELLWFIKGSTNAKELSSKGVKIWDANGSRDFLDSLGFSTREEGDLGPVYGFQWRHFGAEYRDMESDYSGQGVDQLQRVIDTIKTNPDDRRIIMCAWNPRDLPLMALPPCHALCQFYVVNSELSCQLYQRSGDMGLGVPFNIASYALLTYMIAHITGLKPGDFIHTLGDAHIYLNHIEPLKIQLQREPRPFPKLRILRKVGKIDDFKAEDFQIEGYNPHPTIKMEMAV
B2: I108F: human TS mutant Ile108→Phe (protein)
chain: B1 chain with S52G, I108F
B3: K47E: human TS mutant Lys47→Glu (protein)
chain: B1 chain with K47E, S52G
B4: T51A: human TS mutant Thr51→Ala (protein)
chain: B1 chain with T51A, S52G
B5: L221S: human TS mutant Leu221→Ser (protein)
chain: B1 chain with S52G, L221S
B6: R50C: human TS mutant Arg50→Cys (protein)
chain: B1 chain with R50C, S52G
B7: L221A: human TS mutant Leu221→Ala (protein)
chain: B1 chain with S52G, L221A
B8: F225L: human TS mutant Phe225→Leu (protein)
chain: B1 chain with S52G, F225L
B9: L221I: human TS mutant Leu221→Ile (protein)
chain: B1 chain with S52G, L221I
B10: D49N: human TS mutant Asp49→Asn (protein)
chain: B1 chain with D49N, S52G
B11: F225Y: human TS mutant Phe225→Tyr (protein)
chain: B1 chain with S52G, F225Y

Test system: Mouse TS-negative cells (FSthy21)
Test: Rescue of TS-negative cells by transfection of human TS cDNAs
Type: cell-based
Settings: for TS catalytic function / complementation of growth of TS-negative cells: selective medium lacking thymidine; for FM3A TS cells surviving by transfection: selective medium without thymidine
From the text: Mouse TS-negative cells (FSthy21) were transfected with a plasmid (pcDNA3hTS*) encoding wild-type or a various mutant human TS enzyme by standard DOTAP transfection procedures. The host cells are deficient in TS, which are unable to survive without exogenous thymidine. […] In contrast, cells were unable to survive with transfection of other 11 human TS variants. For each surviving transfectant, at least 12 individual clones were isolated by soft agar or limiting dilution in 96-well plates. Those clones were expanded to cell lines by growth in normal media. Three cell clones for each transfectant were randomly selected for drug sensitivity assay.

| Molecule | TS catalytic function / complementation of growth of TS-negative cells | FM3A TS cells surviving by transfection |
| --- | --- | --- |
| B1 | able to complement growth; also recorded: retain TS catalytic function; also recorded: able to allow growth | yes |
| B2 | able to complement growth; also recorded: functional | yes |
| B3 | able to complement growth; also recorded: retain TS catalytic function; also recorded: able to allow growth | yes |
| B4 | not tolerated | no |
| B5 | able to complement growth | yes |
| B6 | catalytically inactive | no |
| B7 | able to complement growth | yes |
| B8 | able to complement growth; also recorded: active enzymes | yes |
| B9 | able to complement growth | yes |
| B10 | not tolerated | no |
| B11 | able to complement growth; also recorded: active enzymes | yes |
